Source: patent US20220195008A1 (US Dept. of Health and Human Services, published 2022)

B1: anti-MAGE-A12 TCR FM8 (TCR, V domains shown)
V domain 1: QTVTQSQPEMSVQEAETVTLSCTYDTSESDYYLFWYKQPPSRQMILVIRQEAYKQQNATENRFSVNFQKAAKSFSLKISDSQLGDAAMYFCAYRSAQGGSEKLVFGKGTKLTVNP
V domain 2: ETGVTQTPRHLVMGMTNKKSLKCEQHLGHNAMYWYKQSAKKPLELMFVYSLEERVENNSVPSRFSPECPNSSHLFLHLHTLQPEDSALYLCASSQTTYYNEQFFGPGTRLTVLE
B2: anti-MAGE-A3 TCR 13-18 (TCR, V domains shown)
V domain 1: QKEVEQDPGPLSVPEGAIVSLNCTYSNSAFQYFMWYRQYSRKGPELLMYTYSSGNKEDGRFTAQVDKSSKYISLFIRDSQPSDSATYLCAMRGAQKLVFGQGTRLTINP
V domain 2: DAMVIQNPRYQVTQFGKPVTLSCSQTLNHNVMYWYQQKSSQAPKLLFHYYDKDFNNEADTPDNFQSRRPNTSFCFLDIRSPGLGDAAMYLCATSWDRGYEQYFGPGTRLTVTE

Key:
[1] = biological target: MAGE-A12:170-178 in the context of HLA-Cw7 (subtype not stated at that place) (human); test: cell-based or functional assay
[2] = biological target: MAGE-A3 168-176 peptide (…) in the context of HLA-A*01 (human); test: cell-based or functional assay

Binder	minimum peptide concentration for recognition, relative to TCR 502 [1]	minimum peptide concentration for recognition, relative to TCR A10 [2]
B1	100 fold (higher than for TCR 502)	
B2		10 fold (higher than for TCR A10)
